The labels stand for the following.
B1: ORF57^8–120 (domain or fragment)
chain: GISSDDDFDSSDSSSDEEESDTSPQIMKSDVTMASPPSTPEPSPDVSASTSNLKRERQRSPITWEHQSPLSRVYRSPSPMRFGKRPRISSNSTSRSCKTSWADRVREAAAQRR
notes: Herpesvirus saimiri (HVS) ORF57 protein, residues 8-120; Construct of the NMR and fluorescence experiments; It may be the same construct as the hexa-histidine ORF57^8–120; also called ORF57 aa8–120; ORF57(aa8–120); source: E. coli BL21-RP, purified (gel filtration), as described previously [30]
B2: ALYREF fragment aa1–155 (ALYREF^1–155) (domain or fragment)
chain: not shown
notes: source: E. coli BL21-RP, purified (gel filtration), as described previously [30]

The target of experiment [1] is B2. The experiment can be described thus: other fluorescence titration; blue shift of tryptophan emission (barycentric mean) with rising concentrations of equimolar ALYREF^1–155 and ORF57^8–120; buffer F (20 mM phosphate pH 6.2, 50 mM NaCl, 50 mM L-Arg+L-Glu, 5 mM EDTA, 1 mM TCEP); apparent Kd, quadratic equation or DynaFit. Particulars: both partners purified.
The experiment “ORF57^8–120” concerns the target B1. The experiment can be described thus: other fluorescence titration; 14merS RNA titrated into 10 µM 1:1 ALYREF^1–155 - ORF57^8–120 mixture in buffer F; three-equation equilibrium model (DynaFit); the constant of ALYREF for the ORF57-RNA complex inferred from the thermodynamic cycle; apparent. The following applies: both partners purified.

As to B1, in experiment [1], the Kd was 2560 ± 200 nM.

B2: the “KD of ALYREF for the ORF57-RNA (14merS) complex, inferred from the thermodynamic cycle” value with ORF57^8–120 was 520 nM.

The record behind these values is article PMC3923783, “Competitive and Cooperative Interactions Mediate RNA Transfer from Herpesvirus Saimiri ORF57 to the Mammalian Export Adaptor ALYREF” (PLoS Pathogens, 2014).
